Laboratory results as given in PMC6196983, “The Native Monomer of Bacillus Pumilus Ribonuclease Does Not Exist Extracellularly” (BioMed Research International, 2018).

Molecular target: the molecule itself
Assay: NMR self-diffusion (hydrodynamic radius); 1.5 mg/ml binase in D2O at pH 3.0 and pH 6.4; BPP-LED stimulated echo, 600.13 MHz; radius from the Stokes-Einstein equation compared with the theoretical monomer size of 1.6 nm

B1: binase, secreted guanyl-preferring ribonuclease of Bacillus pumilus (enzyme, UniProt P00649 54-162, looked up)
chain: AVINTFDGVADYLIRYKRLPDNYITKSQASALGWVASKGNLAEVAPGKSIGGDVFSNREGRLPSASGRTWREADINYVSGFRNADRLVYSSDWLIYKTTDHYATFTRIR
notes: binase, secreted ribonuclease of Bacillus pumilus (formerly Bacillus intermedius); also called B. pumilus secreted RNase; Bacillus intermedius RNase; source: isolated from B. pumilus culture fluid, purified
- stoichiometry N: 2
